Data reported in a protein production outcome set (Wang et al. 2014).

Assay: label from the status in PepcDB records
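Also: failed if final PepcDB status was selected cloned or expressed and not failed if soluble or beyond.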

## MNIRRARPDDLMNMQHCNLLCLPENYQMKYYFYHGLSWPQLSYIAEDEDGKIVGYVLAKMEEDPDDVPHGHITSLAVKRSHRRLGLAQKLMDQASRAMIENFSAKYVSLHVRKSNRAALHLYSNTLNFQVSEVEPKYYADGEDAYAMKRDLSQMADELRRQLVLKKGRYVVLGSKENQGSTLPGSEEASQQENLAGGDSGSDGKDSTDVQDSLQTLGSAS
  protein production: failed

## MPVRVIVDSSACLPTHVAEDLDITVINLHVMNNGEERSTSGLSSLELAASYARQLERGGDDGVLALHISKELSSTWSAAVTAAAVFDDDSVRVVDTSSLGMAVGAAAMAAARMAKDGASLQECYDIAVDTLKRSETWIYLHRIDEIWKSGRISTATAMVSTALATRPIMRFNGGRMEIAAKTRTQSKAFAKLVELAQIRADGEPVFIAIGQNEAREAAKQLEELLRNALPEGSSFMSVDIDPTLAVHSGPGAVSVSAVFANQAPELSTGKAGAK
  protein production: not failed

## MDGRPLNRTTRAVAMIAVTIPAHNEQALIGPCLQSIRVAAQHPALQGEAVEIHVALDRCTDQTGVIARAHGAITQEVCGGVGVARAAAASAAIARGAHWLACTDADTRVPPDWLMAQLACAADAFCGVVEVTDWRDHLSQTRAAFLASEIRHDGHPHVHGANLGMRTSAYLAAGGFSNASSSEDVALVAALEQAGMRIARLASPVVNTSARRSARASGGFADYLLRLEAALLAASPSLGLEHHHHHH
  protein production: failed

## MSLISFAPHSGVWLLTTPHTSYALRIDASGAPCHLAWGPRLTLAAAEELAVPEPPAASSFEGRPSVGEELPVDGGVRYGPPSLQVRFADGSRAFEWQPTGHRVHESADGAHELVLFFRDRRYPLQVALHYRVRADTDVIERWTVVRNGGDEPVTLLRADSAAWTLPPLADYRLSHVTGQWSAESRLRRDRLPYGETVLTSRRGITSHHTNPWLMVDSGEATEDHGRVWSAALAWSGSWRITTQRTPDGRTGFTGGVGHDGTGVPLTPGEEFTAPAFAGLFTADGFGAASRAWHAYTLAHVLPHPDEPVPVLYNSWEATGFDVDEVGQKALAERAAALGVELYVVDDGWFGGRRSDRAGLGDWTPAPDRFPDGLGPLADRVRELGMRFGLWVEPEMVNPDSDLYRAHPDWVLHLPDRSRSELRNQLVLNFARRDVADWAYGWLTELVGAHRIDFLKWDMNRAFSEAGWPGQQDGADRLGTQYVRHLYGVIDRLRADHPGLRIESCSGGGGRIDLGILGRTDQTWASDNTDAADRLWIQHGFSQIYPARTMGCWVTDAPNQFTGRGLPLRFRFHAAMAGALGIGGDLARWSEEELREGAALVTEYKKVRHLVQHGRLDRLSPPSGQSPAVVQYTSADGSESLVLAWRGVPRPGDADLPVRLRALTPAARYRDSRTGTVHHASVLGDYGLRLDLPAGDWSSVAMHLVREPEAV
  protein production: failed

## SRRRRSGTEPEKIEPGEGASRSRRDMLKDGGQQGLGTGARDPDKATRFRMEELRLTSTTFALTGDSAHNQAMVHWSGHNSSVILILTKLYDYNLGSITESSLWRSTDYGTTYEKLNDKVGLKTILSYLYVCPTNKRKIMLLTDPEIESSLLISSDEGATYQKYRLNFYIQSLLFHPKQEDWILAYSQDQKLYSSAEFGRRWQLIQESVVPNRFYWSVMGSSKEPDLVHLEARTVDGHSIYLTCRMQNCTEANRNKPFPGYIDPDSLIVQDDYVFVQLTSGGRPHYYVSYRRSPFAQMKLPKYALPKDMHVISTDENQVFAAVQEWNQNDTYNLYISDTRGVYFTLALENVQSSRGPEGNVMIDLYEVAGIKGMFLANKKIDNQVKTFITYNKGRDWRLLQAPDADLRGDPVHCLLPYCSLHLHLKVSENPYTSGIIASRDTAPSIIVASGNIGSELSDSDISMFVSSDAGNTWRQIFEEEHSILYLDQGGVLVAMKHTSLPIRHLWLSFDEGRSWSKYSFTSIPLFVDGVLGEPGEETLIMTVFGHFSHRSEWQLVKVDYKSIFDRRCAEEDYRPWQLHSQGEACIMGAKRIYKKRKSERKCMQGKYAGAMESEPCVCTEADFDCDYGYERHSNGQCLPAFWFNPSSLSKDCSLGQSYLNSTGYRKVVSNNCTDGVREQYTAKPQKCP
  protein production: not failed

## METRAAENTAIFMCKCCNLFSPNQSELLSHVSEKHMEEGVNVDEIIIPLRPLSTPEPPNSSKTRDEFLVMKRKRGRPKGSTKKSSTEEELAENIVSPTEDSPLAPEEGNSLPPSSLECSKCCRKFSNTRQLRKHICIIVLNLGEEEGEAGNESDLELEKKCKEDDREKASKRPRSQKTEKVQKISGKEARQLSGAKKPIISVVLTAHEAIPGATKIVPVEAGPPETGATNSETTSADLVPRRGYQEYAIQQTPYEQPMKSSRLGPTQLKIFTCEYCNKVFKFKHSLQAHLRIHTNEKPYKCPQCSYASAIKANLNVHLRKHTGEKFACDYCSFTCLSKGHLKVHIERVHKKIKQHCRFCKKKYSDVKNLIKHIRDAHDPQDKKVKEALDELCLMTREGKRQLLYDCHICERKFKNELDRDRHMLVHGDKWPFACELCGHGATKYQALELHVRKHPFVYVCAVCRKKFVSSIRLRTHIKEVHGAAQEALVFTSSINQSFCLLEPGGDIQQEALGDQLQLVEEEFALQGVNALKEEACPGDTQLEEGRKEPEAPGEMPAPAVHLASPQAESTALPPCELETTVVSSSDLHSQEVVSDDFLLKNDTSSAEAHAAPEKPPDMQHRSSVQTQGEVITLLLSKAQSAGSDQESHGAQSPLGEGQNMAVLSAGDPDPSRCLRSNPAEASDLLPPVAGGGDTITHQPDSCKAAPEHRSGITAFMKVLNSLQKKQMNTSLCERIRKVYGDLECEYCGKLFWYQVHFDMHVRTHTREHLYYCSQCHYSSITKNCLKRHVIQKHSNILLKCPTDGCDYSTPDKYKLQAHLKVHTALDKRSYSCPVCEKSFSEDRLIKSHIKTNHPEVSMSTISEVLGRRVQLKGLIGKRAMKCPYCDFYFMKNGSDLQRHIWAHEGVKPFKCSLCEYATRSKSNLKAHMNRHSTEKTHLCDMCGKKFKSKGTLKSHKLLHTADGKQFKCTVCDYTAAQKPQLLRHMEQHVSFKPFRCAHCHYSCNISGSLKRHYNRKHPNEEYANVGTGELAAEVLIQQGGLKCPVCSFVYGTKWEFNRHLKNKHGLKVVEIDGDPKWETATEAPEEPSTQYLHITEAEEDVQGTQAAVAALQDLRYTSESGDRLDPTAVNILQQIIELGAETHDATALASVVAMAPGTVTVVKQVTEEEPSSNHTVMIQETVQQASVELAEQHHLVVSSDDVEGIETVTVYTQGGEASEFIVYVQEAMQPVEEQAVEQPAQEL
  protein production: not failed

## MTSKRKRWTAQAAKLPSPMGGLALAIASLGWTWESVMPSLNGWGQLTGAMIASALLLMLTGKFLLHPTVLKNELSHPVIGSVIPTFAMALMVVSNLLGHYFPHAGLALWLGAIAIHVVFLGAFIYYRAIDFKLEHMVPSWFVPPIGIIVAAVSFPSNGEPWLVNTILAFGMLAYLIMLPLMLYRLIFCQAIPDAAKPTIAILAAPASLSLAGYLTVCEQPSIAVVAILVSIAILMTSVIYLAFFHLLKLPFSPGYAAFTFPMVIGATALFKTAHWLEQFSQMAELTEWVRLLADFELGVATIVVAYVALRYLTHYVPNPVENIGSTTSVQLK
  protein production: failed

## QSLELGTMQPSFTSVTGKGGVKVIDGSSVKFGRFDGAEPHCVGLTDLVTEQDGSSMAAGFMQWDNAFFPWTLNYDEIDMVLEGELHVRHEGETMIAKAGDVMFIPKGSSIEFGTPTSVRFLYVAWPANWQSV
  protein production: not failed

## MKKITIISGHPNHESSISNKAILEYLESNVMESQLNIRKLEDLNTHFEFNVIQEQEALLQADTIIFQFPLFWYSFPALMKKWIDDVICYGFAFGGEKGAQLKDKQFIFSFTIGGQESAYGNEKEIALTIDELLKPLKQMLRYCQVKDINYVYSHNMLYIPDMYGSIEDINVRSECHAIKLLSMVN
  protein production: failed

## METSLISPMKENNTAQPQQREENTQQNLNAAVPIKQQSPGLLPEALEVGVKPDPASQILATQEIENPVAGFEGDSDKFHISTDEMAEHLQASDLWYCPDGSFVKKIIVHGHGLDKPKLGSKCRVLALGFPFGSGMPEGWTELTIGTGQWREKTWGELTEKCLESMRQGEEAKIHLPGSSTPLAKLRLDSFTNGRDSWELEAVEKEALAKEEHRRGTELFRAGNPQGAARCYGRALRLLLTLPPPGPPERTILHANLAACQLLLGHPQLAAQSCDRVLEREPGHLKALYRRGVAQAALGDLDKATADLKKVLAVDPKNRAAKEELGKVVIQGKIQDAGLARGLRKMFS
  protein production: failed
